{
  "source": "paper PMC5932034",
  "about": "(2018)",
  "key": {"[1]": {"molecular_target": "FliT−FliD chaperone–substrate complex (non-fused) (Salmonella enterica serovar Typhimurium …, UniProt P0A1N2 1-122; P16328 1-467)", "sequence (P0A1N2 whole entry, chain 1 of 2, the tested form may be a part)": "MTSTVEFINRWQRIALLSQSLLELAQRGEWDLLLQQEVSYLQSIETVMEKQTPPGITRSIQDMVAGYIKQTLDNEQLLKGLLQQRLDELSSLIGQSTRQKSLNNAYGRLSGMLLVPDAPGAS", "sequence (P16328 whole entry, chain 2 of 2, the tested form may be a part)": "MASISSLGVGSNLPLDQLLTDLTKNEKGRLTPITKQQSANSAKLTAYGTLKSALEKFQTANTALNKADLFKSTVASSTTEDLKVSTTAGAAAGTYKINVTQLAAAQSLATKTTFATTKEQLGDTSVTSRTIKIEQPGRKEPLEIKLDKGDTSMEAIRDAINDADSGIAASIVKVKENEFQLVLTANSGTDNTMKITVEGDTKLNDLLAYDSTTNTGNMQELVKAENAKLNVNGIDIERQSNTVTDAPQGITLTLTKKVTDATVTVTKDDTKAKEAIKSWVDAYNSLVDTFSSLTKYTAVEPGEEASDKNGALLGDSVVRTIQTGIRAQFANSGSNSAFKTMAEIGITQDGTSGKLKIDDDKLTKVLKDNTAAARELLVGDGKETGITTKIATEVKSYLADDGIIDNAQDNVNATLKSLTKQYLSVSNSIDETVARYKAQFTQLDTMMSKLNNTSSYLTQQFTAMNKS", "experiment": "ITC"}, "[2]": {"molecular_target": "fused FliT−FliD^C construct (FliD^C fused to the N terminus of FliT) (Salmonella enterica serovar Typhimurium …, UniProt P16328)", "experiment": "ITC"}},
  "data": [
    {"binder": "cytoplasmic domain of Salmonella enterica serovar Typhimurium FlhA (FlhA^C) (domain or fragment) SLGMEVGYRLIPMVDFQQDGELLGRIRSIRKKFAQDMGFLPPVVHIRDNMDLQPARYRILMKGVEIGSGDAYPGRWLAINPGTAAGTLPGEKTVDPAFGLDAIWIESALKEQAQIQGFTVVEASTVVATHLNHLIGQFSAELFGRQEAQQLLDRVSQEMPKLTEDLVPGVVTLTTLHKVLQNLLAEKVPIRDMRTILETLAEHAPLQSDPHELTAVVRVALGRAITQQWFPGNEEVQVIGLDTALERLLLQALQGGGGLEPGLADRLLAQTQEALSRQEMLGAPPVLLVNHALRPLLSRFLRRSLPQLVVLSNLELSDNRHIRMTATIGGK", "values": [
      {"measurement": "Kd", "setting": "[1]", "value": "~25", "unit": "µM"},
      {"measurement": "Kd", "setting": "[2]", "value": "~29", "unit": "µM"}
    ]}
  ]
}
